Assay results as given in the supplement of paper PMC9732359.
± gives the uncertainty stated by the source.

Assay: protein stability index of a GFP-peptide fusion (yeast GPS) (PSI 1-4); higher = more stable; sorted into four equal gates, so the index is relative within each strain
Procedure, shortened: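 Sequencing reads from sorted gates were used to score each peptide. The library consisted of tiled 17-residue yeast protein peptides fused downstream of GFP on a Cherry-expressing plasmid, pooled and carried in yeast. Mid-log cultures in leucine-free medium were split into four equal gates by GFP/Cherry ratio, and each gate's plasmids were PCR-amplified and Illumina-sequenced. The protein stability index adds up, over all gates, the read frequency multiplied by the gate number.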

Row | Sequence | protein stability index (doa10∆) | protein stability index (pdr5∆) | protein stability index (san1∆) | protein stability index (ubr1∆)
1 | SAKEIAKASGCDDESGD [MCD1] | 2.19 ± 0.094 | 1.8 ± 0.15 | 2.62 ± 0.12 | 2.86 ± 0.14
2 | SAKPSQIPTVSSPLGFE [SIR4] | 3.14 ± 0.064 | 2.98 ± 0.058 | 2.85 ± 0.068 | 3.03 ± 0.047
3 | SARGSYLRVSFKNTRET [RPL17A] | 3.1 ± 0.048 | 2.82 ± 0.056 | 2.77 ± 0.051 | 2.86 ± 0.06
4 | SASDALKGRVVEVCLAD [RPS1A] | 2.46 ± 0.06 | 2.82 ± 0.093 | 2.35 ± 0.081 | 2.43 ± 0.055
5 | SASHFEQYTKKINSWDQ [YJL041W/NSP1] | 2.8 ± 0.076 | 3.06 ± 0.061 | 2.69 ± 0.083 | 3.02 ± 0.052
6 | SASKHEYSDNFPVSLSQ [SIR4] | 3 ± 0.045 | 2.71 ± 0.039 | 3.06 ± 0.04 | 3.041 ± 0.029
7 | SASSKEFNFTNLQAKPL [YAR002W/NUP60] | 2.43 ± 0.072 | 2.26 ± 0.068 | 2.46 ± 0.06 | 2.42 ± 0.051
8 | SAVKRLLHVAVSDSNDD [RPN2] | 2.39 ± 0.11 | 3.06 ± 0.071 | 2.56 ± 0.083 | 2.69 ± 0.063
9 | SCKDSQLKWAQNTIDDT [YIL149C/MLP2] | 2.15 ± 0.042 | 2.89 ± 0.057 | 2.65 ± 0.046 | 2.74 ± 0.053
10 | SCTFWSDKESNAYGFIE [YJL039C/NUP192] | 2.9 ± 0.079 | 2.65 ± 0.083 | 2.83 ± 0.07 | 3.26 ± 0.09
11 | SDAQSNLGSNVRNSFPL [REC8] | 3.01 ± 0.07 | 3.12 ± 0.11 | 2.87 ± 0.082 | 3.07 ± 0.055
12 | SDESIERLMTWKFKSLI [RRI2] | 2.26 ± 0.048 | 2.36 ± 0.042 | 2.11 ± 0.066 | 2.31 ± 0.031
13 | SDEVSRGIPRLSEDELR [SMC4] | 3.43 ± 0.14 | 3.69 ± 0.21 | 3.39 ± 0.14 | 3.58 ± 0.1
14 | SDIIILKGEIEDYPMSS [SIR4] | – | – | 3.12 ± 0.24 | 3.48 ± 0.16
15 | SDIISMLQISDDNEMTR [RRI2] | 3.05 ± 0.096 | 3.24 ± 0.1 | 3.2 ± 0.045 | 2.87 ± 0.1
16 | SDIVFIHQNAGRLLRAM [BRR2] | 1.73 ± 0.054 | 1.71 ± 0.054 | 1.9 ± 0.071 | 2.02 ± 0.06
17 | SDLGTVVFDSNEAPPKT [YMR153W/NUP53] | 3.17 ± 0.057 | 3.13 ± 0.051 | 2.6 ± 0.076 | 2.58 ± 0.069
18 | SDNVSFEIQGVPPMKLA [YMR129W/POM152] | 2.8 ± 0.11 | 3.18 ± 0.083 | 3.05 ± 0.062 | 2.86 ± 0.088
19 | SDSEDSDAKEQHQSLSR [ESC2] | 2.81 ± 0.14 | 3.19 ± 0.15 | 3.04 ± 0.084 | 2.52 ± 0.083
20 | SDTSKPAFTFGAQKDNE [YJL041W/NSP1] | 3.32 ± 0.094 | 3.32 ± 0.087 | 3.36 ± 0.074 | 3.48 ± 0.059
21 | SEDLFADGLLQVLVCTA [BRR2] | – | – | – | 2.25 ± 0.13
22 | SEENIGSGLLKLSEIIL [SWI1] | 3.2 ± 0.074 | 3.02 ± 0.066 | 2.92 ± 0.048 | 3.37 ± 0.06
23 | SEHDKKRLSAALSKFLT [YML103C/NUP188] | 2.99 ± 0.09 | 3.08 ± 0.09 | 3.06 ± 0.068 | 3.13 ± 0.071
24 | SEIARTYLLKNDLVKAR [RPN9] | 3.29 ± 0.2 | – | 3.09 ± 0.12 | –
25 | SEIKQQINKAQILENYN [YJL039C/NUP192] | 2.94 ± 0.089 | 3.17 ± 0.069 | 2.73 ± 0.091 | 3.11 ± 0.057
26 | SEKLITKYFEPTSTENN [ECM29] | 2.87 ± 0.076 | 3.09 ± 0.066 | 3.04 ± 0.035 | 2.97 ± 0.041

Row | Sequence | protein stability index (doa10∆) | protein stability index (pdr5∆) | protein stability index (san1∆) | protein stability index (ubr1∆)
27 | SELDSNDFFIIYYTPAF [YJL039C/NUP192] | 1.39 ± 0.065 | 1.51 ± 0.041 | 1.63 ± 0.075 | 1.55 ± 0.044
28 | SELNEGNLSKREIQIDA [SRB8] | 2.69 ± 0.062 | 2.88 ± 0.073 | 2.98 ± 0.069 | 2.12 ± 0.063
29 | SENRFPGWDFETEEIDP [RPL5] | 2.77 ± 0.14 | 2.78 ± 0.076 | 2.48 ± 0.078 | 2.5 ± 0.16
30 | SENVFEGLTYKYPARRI [SSN3] | 3.18 ± 0.11 | 3 ± 0.17 | 2.62 ± 0.17 | 2.86 ± 0.089
31 | SEPLTLKVLSEHLDCMN [PCI8] | 1.91 ± 0.064 | 2.29 ± 0.065 | 2.73 ± 0.055 | 1.93 ± 0.058
32 | SETDLNDIPLGSGQPDN [SRB8] | 3.09 ± 0.11 | 3.12 ± 0.069 | 3.06 ± 0.07 | 2.87 ± 0.056
33 | SFAIYSSTIDAPAFHTS [SRB8] | 2.21 ± 0.055 | 2.21 ± 0.056 | 2.03 ± 0.065 | 2.25 ± 0.045
34 | SFDSIDHSWFLLIGCKL [CSI1] | 1.71 ± 0.1 | 1.77 ± 0.058 | 1.72 ± 0.2 | 2.58 ± 0.05
35 | SFGTANTNGTNASANST [YOR098C/NUP1] | 3.04 ± 0.11 | 3.02 ± 0.11 | 2.75 ± 0.15 | 2.85 ± 0.12
36 | SFHVQKKTCSSCGYPSA [RPL37B] | 1.86 ± 0.08 | 2.18 ± 0.076 | 1.86 ± 0.12 | 2.19 ± 0.059
37 | SFIISSLDTLELESITE [NUT1] | 1.74 ± 0.075 | 1.64 ± 0.042 | 1.78 ± 0.083 | 1.78 ± 0.04
38 | SFLKVDPDLGLDLMFDE [YJL039C/NUP192] | 3.3 ± 0.083 | 3.3 ± 0.09 | 3.04 ± 0.087 | 3.06 ± 0.091
39 | SFSFLNRADGTGEAQVD [YLR335W/NUP2] | – | 3.39 ± 0.23 | – | 2.78 ± 0.29
40 | SFSVCKIRCFRYISTLT [IRR1] | 1.61 ± 0.057 | 1.39 ± 0.055 | 1.49 ± 0.11 | 1.31 ± 0.052
41 | SGCDSTKPSLRKASCIW [ECM29] | 2.86 ± 0.082 | 3.11 ± 0.075 | 2.63 ± 0.076 | 2.98 ± 0.066
42 | SGDNHTQQSHEQQPEQP [RPT4] | 2.96 ± 0.052 | 3.15 ± 0.064 | 3.03 ± 0.06 | 2.95 ± 0.049
43 | SGEDVIIGKTTPISPDE [RPB2] | 3.26 ± 0.21 | – | 3.49 ± 0.083 | 3.35 ± 0.085
44 | SGGSVNLYHVTEDGWIY [PRE2] | 2.85 ± 0.12 | 3.16 ± 0.15 | 3 ± 0.087 | 3.04 ± 0.089
45 | SGITGECLQAYIFFGPI [RET1] | 2.6 ± 0.059 | 2.72 ± 0.064 | 2.64 ± 0.076 | 2.79 ± 0.051
46 | SGLPTCDYYNTFLLNNK [RPN2] | 2.94 ± 0.069 | 2.96 ± 0.071 | 2.68 ± 0.062 | 2.51 ± 0.069
47 | SGNSANNMNVNMNLNPQ [GAL11] | 2.85 ± 0.046 | 2.87 ± 0.042 | 2.73 ± 0.033 | 2.93 ± 0.034
48 | SGQKAGLIAARRTGLLR [RPL2A] | 3.07 ± 0.19 | 3.43 ± 0.11 | 3.15 ± 0.067 | 2.72 ± 0.16
49 | SGRTVISPDPNLSIDEV [RPO31] | 2.4 ± 0.063 | 1.97 ± 0.06 | 2.03 ± 0.099 | 1.92 ± 0.057
50 | SGTFYRYNAKAIGSGSE [PUP2] | 3.15 ± 0.088 | 3.14 ± 0.09 | 3.37 ± 0.06 | 2.98 ± 0.073
51 | SGTKSEVLTYVNYLISN [YJL039C/NUP192] | 2.52 ± 0.053 | 2.5 ± 0.056 | 2.54 ± 0.041 | 2.58 ± 0.044
52 | SGYNQEDSMIMNQSSID [RPB2] | 2.46 ± 0.11 | 2.67 ± 0.12 | – | 2.84 ± 0.067
